Bridges are numbered along the chain shown (N, C = ends). Where no end group is shown, it is not given here. C4 = constraint linking the two cyclising residues; C5 = constraint linking the two cyclising residues; C7 = constraint linking the two cyclising residues

The term IC50 denotes the concentration needed to halve the response being measured. A high value points to lower potency.

Holding throughout (assay): fluorescence polarisation competition
For one experiment, the target named is T1, P5C4 (linker 1-8 via C4; not fully specified (N-terminus, C-terminus); also: structure of constraint C4 not given here in text).
T1 chain: CRLYGFKC

The next experiment concerns the target T2, P2.
T2 chain: Ac-LYGFKW-NH2

The next experiment deals with T3, P3.
T3 chain: Ac-RLYGFKW-NH2

In another experiment the target is T4, P7C8 (bridge 1-8; not fully specified (N-terminus, C-terminus, bridges); printed as C_C8_RLYGFKW_C8_; also: structure of constraint C8 not given here in text).
T4 chain: CRLYGFKW

The target in a further experiment is T5, P5C5 (linker 1-8 via C5; not fully specified (N-terminus, C-terminus); also: structure of constraint C5 not given here in text).
T5 chain: CRLYGFKC

For a further experiment, the target named is T6, P1.
T6 chain: Ac-RLYGFK-NH2

The next experiment concerns the target T7, P4.
T7 chain: Ac-RLYGFKWH-NH2

The target in a further experiment is T8, P5C7 (linker 1-8 via C7; not fully specified (N-terminus, C-terminus); also: structure of constraint C7 not given here in text).
T8 chain: CRLYGFKC

B1: CK2α (protein)
chain: MSGPVPSRARVYTDVNTHRPREYWDYESHVVEWGNQDDYQLVRKLGRGKYSEVFEAINITNNEKVVVKILKPVKKKKIKREIKILENLRGGPNIITLADIVKDPVSRTPALVFEHVNNTDFKQLYQTLTDYDIRFYMYEILKALDYCHSMGIMHRDVKPHNVMIDHEHRKLRLIDWGLAEFYHPGQEYNVRVASRYFKGPELLVDYQMYDYSLDMWSLGCMLASMIFRKEPFFHGHDNYDQLVRIAKVLGTEDLYDYIDKYNIELDPRFNDILGRHSRKRWERFVHSENQHLVSPEALDFLDKLLRYDHQSRLTAREAMEHPYFYTVVKDQARMGSSSMPGGSTPVSSANMMSGISSVPTPSPLGPLAGSPVIAAANPLGMPVPAAAGAQQ
As to B1, the IC50 with P5C4 was 54.6 µM; with P2, 137 µM; in the experiment with P3 it was 22.5 µM; in the experiment with P7C8, 15.6 µM; with P5C5, 28.9 µM; in the experiment with P1, above 500 µM. Also, the IC50 with P4 came out at 16.7 µM; with P5C7, 40 µM.

These data come from PMC9004346 (2022).
